From article PMC11316641 (Cell, 2024)
One block for each molecule: values may come before it.

Legend:
[1] = target: WDR11-FAM91A1 complex (human) (UniProt Q658Y4); assay: BLI
SEC-MALS = target: the molecule itself; assay: SEC-MALS

Sequence of WDR11-FAM91A1 complex (human) (Q658Y4 whole entry, one chain of several): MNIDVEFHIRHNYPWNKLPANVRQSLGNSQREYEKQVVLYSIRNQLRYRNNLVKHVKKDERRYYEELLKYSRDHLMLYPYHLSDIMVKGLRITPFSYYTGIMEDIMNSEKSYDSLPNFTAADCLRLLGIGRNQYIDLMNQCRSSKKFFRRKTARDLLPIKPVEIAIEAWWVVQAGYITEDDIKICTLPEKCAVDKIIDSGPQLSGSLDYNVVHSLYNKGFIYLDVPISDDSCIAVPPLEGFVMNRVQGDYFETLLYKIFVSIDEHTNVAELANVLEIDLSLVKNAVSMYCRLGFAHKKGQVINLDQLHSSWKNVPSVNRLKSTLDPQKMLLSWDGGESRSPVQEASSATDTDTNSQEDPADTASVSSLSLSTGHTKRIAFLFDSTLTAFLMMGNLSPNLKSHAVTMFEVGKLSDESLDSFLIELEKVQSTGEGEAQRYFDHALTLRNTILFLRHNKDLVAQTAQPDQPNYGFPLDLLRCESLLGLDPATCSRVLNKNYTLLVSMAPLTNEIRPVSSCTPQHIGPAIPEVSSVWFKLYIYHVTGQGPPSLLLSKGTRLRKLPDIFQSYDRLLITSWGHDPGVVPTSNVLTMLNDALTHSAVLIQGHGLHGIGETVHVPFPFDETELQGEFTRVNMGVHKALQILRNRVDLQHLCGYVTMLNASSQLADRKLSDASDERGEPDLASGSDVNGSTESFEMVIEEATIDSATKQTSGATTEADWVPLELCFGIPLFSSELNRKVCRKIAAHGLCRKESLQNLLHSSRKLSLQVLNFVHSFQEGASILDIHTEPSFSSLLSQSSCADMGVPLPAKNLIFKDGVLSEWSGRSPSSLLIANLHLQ

Kd [1]: 20.8 µM
Molecule: CI-MPR AC1-WT peptide

B1: WDR11 (natural protein, human)
chain: MLPYTVNFKVSARTLTGALNAHNKAAVDWGWQGLIAYGCHSLVVVIDSITAQTLQVLEKHKADVVKVKWARENYHHNIGSPYCLRLASADVNGKIIVWDVAAGVAQCEIQEHAKPIQDVQWLWNQDASRDLLLAIHPPNYIVLWNADTGTKLWKKSYADNILSFSFDPFDPSHLTLLTSEGIVFISDFSPSKPPSGPGKKVYISSPHSSPAHNKLATATGAKKALNKVKILITQEKPSAEFITLNDCLQLAYLPSKRNHMLLLYPREILILDLEVNQTVGVIAIERTGVPFLQVIPCFQRDGLFCLHENGCITLRVRRSYNNIFTTSNEEPDPDPVQELTYDLRSQCDAIRVTKTVRPFSMVCCPVNENAAALVVSDGRVMIWELKSAVCNRNSRNSSSGVSPLYSPVSFCGIPVGVLQNKLPDLSLDNMIGQSAIAGEEHPRGSILREVHLKFLLTGLLSGLPAPQFAIRMCPPLTTKNIKMYQPLLAVGTSNGSVLVYHLTSGLLHKELSIHSCEVKGIEWTSLTSFLSFATSTPNNMGLVRNELQLVDLPTGRSIAFRGERGNDESAIEMIKVSHLKQYLAVVFRDKPLELWDVRTCTLLREMSKNFPTITALEWSPSHNLKSLRKKQLATREAMARQTVVSDTELSIVESSVISLLQEAESKSELSQNISAREHFVFTDIDGQVYHLTVEGNSVKDSARIPPDGSMGSITCIAWKGDTLVLGDMDGNLNFWDLKGRVSRGIPTHRSWVRKIRFAPGKGNQKLIAMYNDGAEVWDTKEVQMVSSLRSGRNVTFRILDVDWCTSDKVILASDDGCIRVLEMSMKSACFRMDEQELTEPVWCPYLLVPRASLALKAFLLHQPWNGQYSLDISHVDYPENEEIKNLLQEQLNSLSNDIKKLLLDPEFTLLQRCLLVSRLYGDESELHFWTVAAHYLHSLSQEKSASTTAPKEAAPRDKLSNPLDICYDVLCENAYFQKFQLERVNLQEVKRSTYDHTRKCTDQLLLLGQTDRAVQLLLETSADNQHYYCDSLKACLVTTVTSSGPSQSTIKLVATNMIANGKLAEGVQLLCLIDKAADACRYLQTYGEWNRAAWLAKVRLNPEECADVLRRWVDHLCSPQVNQKSKALLVLLSLGCFFSVAETLHSMRYFDRAALFVEACLKYGAFEVTEDTEKLITAIYADYARSLKNLGFKQGAVLFASKAGAAGKDLLNELESPKEEPIEE
stoichiometry N (SEC-MALS): 2
